Kd data for 2 substances are collected here from publication PMC5175494.

The target in test [1] is human cardiac T53C-IAANS TnC (human) (UniProt P63316). Nature of the test: stopped-flow fluorescence; apparent; 1 uM TnC T53C-IAANS with saturating Ca2+ and increasing concentrations of TnI128-180, Ca2+ removed with 10 mM EGTA; rate of Ca2+ dissociation followed by IAANS fluorescence; 15°C; 10 mM MOPS, 150 mM KCl, pH 7.0.
For a further test, the target named is Troponin C (UniProt P63316). The following applies: cited from earlier work.

As to “TnI_(128−180) peptide (from UniProt P19429 128-180)”, the Kd in test [1] was determined as 3000 nM.

For Troponin I (from UniProt P19429), the Kd with Troponin C was 1200 nM.
